Reference: paper PMC10333351 (Nature Communications, 2023)
Positions count from the first letter of the chain named.

How the values were obtained:
[1] = target: the molecule itself; test: cryo-EM structure; KpFtsZ-Mb double-helical tube: 4.0 mg/ml KpFtsZ, 20 mM HEPES pH 7.5, 25 mM NaCl, 100 mM KCl, 5 mM MgCl2, 1 mM GMPPNP, 0.12 mM PC190723, 1.2x molar excess of Mb
[2] = target: the molecule itself; test: negative staining EM; 1.0 mg/ml purified KpFtsZ alone or with 1 mM GTP, GMPCPP, GDP or GMPPNP; uranyl acetate stain
[3] = target: the molecule itself; test: crystal structure; FtsZtr mixed with 1.2x molar excess of Mb and PC190723; hanging drop, 293 K, 0.2 M sodium formate, 0.1 M Bis-Tris propane pH 6.5, 20% PEG3350; space groups P212121 and P21
[4] = target: T1, FtsZ from Escherichia coli, full length, purified (tag state not stated) (Escherichia coli, UniProt P0A9A6 1-383); test: SPR
T1 chain: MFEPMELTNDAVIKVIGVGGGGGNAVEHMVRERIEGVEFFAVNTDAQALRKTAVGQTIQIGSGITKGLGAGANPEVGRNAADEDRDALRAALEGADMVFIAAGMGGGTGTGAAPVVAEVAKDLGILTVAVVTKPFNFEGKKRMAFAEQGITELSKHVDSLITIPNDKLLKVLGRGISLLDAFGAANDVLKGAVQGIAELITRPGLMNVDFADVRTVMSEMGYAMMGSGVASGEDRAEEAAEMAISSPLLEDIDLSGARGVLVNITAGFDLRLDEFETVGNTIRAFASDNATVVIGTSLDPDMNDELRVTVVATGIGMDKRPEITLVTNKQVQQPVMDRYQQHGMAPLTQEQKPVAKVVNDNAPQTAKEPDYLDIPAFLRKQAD

[5] = target: T2, FtsZ from Klebsiella pneumoniae, full length, purified (tag state not stated) (Klebsiella pneumoniae, UniProt W9BCK7 1-383); test: SPR
T2 chain: T1 chain with D86E, E93D, A345S, V354A, A362T

B1: FtsZ from Klebsiella pneumoniae, full length, tag removed (natural protein, UniProt W9BCK7 1-383, looked up)
chain: T1 chain with D86E, E93D, A345S, V354A, A362T
notes: Used for cryoEM; Polymer (protofilament or double-helical tube); also called KpFtsZ; source: E. coli, purified (HisTrap, HiTrap Q, Superdex200), tag removed with TEV protease; not shown: His6, N-terminal, cleaved
- binding result [1]: binds

B2: FtsZ from Klebsiella pneumoniae, full length, purified (tag state not stated) (natural protein, UniProt W9BCK7 1-383, looked up)
chain: T1 chain with D86E, E93D, A345S, V354A, A362T
notes: Used for SPR (analyte) and negative staining EM; also called KpFtsZ; source: E. coli, purified (HisTrap, HiTrap Q, Superdex200)
- binding result [2]: binds

B3: truncated KpFtsZ (residues 11-316), tag removed (domain or fragment, Klebsiella pneumoniae, UniProt W9BCK7 11-316, looked up)
chain: AVIKVIGVGGGGGNAVEHMVRERIEGVEFFAVNTDAQALRKTAVGQTIQIGSGITKGLGAGANPEVGRNAADEDREALRAALDGADMVFIAAGMGGGTGTGAAPVVAEVAKDLGILTVAVVTKPFNFEGKKRMAFAEQGITELSKHVDSLITIPNDKLLKVLGRGISLLDAFGAANDVLKGAVQGIAELITRPGLMNVDFADVRTVMSEMGYAMMGSGVASGEDRAEEAAEMAISSPLLEDIDLSGARGVLVNITAGFDLRLDEFETVGNTIRAFASDNATVVIGTSLDPDMNDELRVTVVATGIG
notes: FtsZ, Klebsiella pneumoniae, residues 11-316; also called KpFtsZtr; source: E. coli, purified (HisTrap, HiTrap Q, Superdex200), tag removed with TEV protease; not shown: His6, N-terminal, cleaved
- binding result [3]: binds

B4: truncated EcFtsZ (residues 11-316), tag removed (domain or fragment, Escherichia coli, UniProt P0A9A6 11-316, looked up)
chain: B3 chain with E76D, D83E
notes: FtsZ, Escherichia coli, residues 11-316; also called EcFtsZtr; source: E. coli, purified (HisTrap, HiTrap Q, Superdex200), tag removed with TEV protease; not shown: His6, N-terminal, cleaved
- binding result [3]: binds

B5: Mb(Ec/KpFtsZ_S1), His10-tagged (designed binder)
chain: MKHHHHHHHHHHSSDYKDDDDKGENLYFQGSVSSVPTKLEVVAATPTSLLISWDAPAVTVSYYRITYGETGGNSPVQEFTVPGSKSTATISGLSPGVDYTITVYARSAYHRRSPISINYRT
- koff [4]: 0.39 s⁻¹
- koff [5]: 0.67 s⁻¹
